Data reported in paper PMC12418388 (2025).

Molecular target: T1, DDX6 (Homo sapiens, UniProt P26196)
T1 chain: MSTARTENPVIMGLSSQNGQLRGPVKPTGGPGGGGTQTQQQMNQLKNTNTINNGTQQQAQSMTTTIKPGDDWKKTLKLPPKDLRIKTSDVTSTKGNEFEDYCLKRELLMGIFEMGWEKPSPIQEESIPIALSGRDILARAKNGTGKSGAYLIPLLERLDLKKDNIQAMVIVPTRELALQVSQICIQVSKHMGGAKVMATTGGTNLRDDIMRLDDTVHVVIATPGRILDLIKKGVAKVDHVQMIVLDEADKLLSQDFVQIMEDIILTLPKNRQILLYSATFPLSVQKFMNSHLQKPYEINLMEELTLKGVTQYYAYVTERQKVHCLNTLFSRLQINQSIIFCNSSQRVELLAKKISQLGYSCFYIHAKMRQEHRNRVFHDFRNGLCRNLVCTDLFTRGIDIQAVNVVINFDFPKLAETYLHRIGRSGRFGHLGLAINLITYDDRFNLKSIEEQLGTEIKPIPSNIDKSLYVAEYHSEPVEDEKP
Test: BLI

Kd: 389 nM
B1: DDX3X (protein)
chain: SHVAVENALGLDQQFAGLDLNSSDNQSGGSTASKGRYIPPHLRNREATKGFYDKDSSGWSSSKDKDAYSSFGSRSDSRGKSSFFSDRGSGSRGRFDDRGRSDYDGIGSRGDRSGFGKFERGGNSRWCDKSDEDDWSKPLPPSERLEQELFSGGNTGINFEKYDDIPVEATGNNCPPHIESFSDVEMGEIIMGNIELTRYTRPTPVQKHAIPIIKEKRDLMACAQTGSGKTAAFLLPILSQIYSDGPGEALRAMKENGRYGRRKQYPISLVLAPTRELAVQIYEEARKFSYRSRVRPCVVYGGADIGQQIRDLERGCHLLVATPGRLVDMMERGKIGLDFCKYLVLDEADRMLDMGFEPQIRRIVEQDTMPPKGVRHTMMFSATFPKEIQMLARDFLDEYIFLAVGRVGSTSENITQKVVWVEESDKRSFLLDLLNATGKDSLTLVFVETKKGADSLEDFLYHEGYACTSIHGDRSQRDREEALHQFRSGKSPILVATAVAARGLDISNVKHVINFDLPSDIEEYVHRIGRTGRVGNLGLATSFFNERNINITKDLLDLLVEAKQEVPSWLENMAYEHHYKGSSRGRSKSSRFSGGFGARDYRQSSGASSSSFSSSRASSSRSGGGGHGSSRGFGGGGYGGFYNSDGYGGNYNSQGVDWWGN
